The target in one test is T1, PltF Q438R D263K A230R (Pseudomonas fluorescens, UniProt Q4KCY5 1-498, Q438R | D263K | A230R).
T1 sequence: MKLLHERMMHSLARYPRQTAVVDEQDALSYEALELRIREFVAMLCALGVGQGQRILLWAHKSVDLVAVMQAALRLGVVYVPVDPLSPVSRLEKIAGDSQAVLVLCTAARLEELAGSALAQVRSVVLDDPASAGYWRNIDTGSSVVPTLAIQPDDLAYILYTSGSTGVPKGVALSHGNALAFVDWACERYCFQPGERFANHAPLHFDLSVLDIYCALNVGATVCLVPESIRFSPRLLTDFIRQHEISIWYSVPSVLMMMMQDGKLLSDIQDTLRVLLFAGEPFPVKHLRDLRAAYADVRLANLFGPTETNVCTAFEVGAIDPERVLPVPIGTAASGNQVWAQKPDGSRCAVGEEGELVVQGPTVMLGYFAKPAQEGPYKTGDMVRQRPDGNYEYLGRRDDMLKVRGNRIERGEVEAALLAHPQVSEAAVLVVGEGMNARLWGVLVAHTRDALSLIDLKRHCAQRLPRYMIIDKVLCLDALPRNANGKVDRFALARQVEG
Nature of the test: NMR titration.

The target in test [1] is holo-AcpP (E. coli acyl carrier protein AcpP with phosphopantetheine) (Escherichia coli) (UniProt P0A6A8).
Test [2] has the same target. The source holds these as a separate data set.

Positions count from the first letter of the chain named. Numbers in names are those of the source. Read-outs that look alike come from different tables or passages of the source.

B1: desulfo-AcpP (15N-labelled E. coli acyl carrier protein AcpP loaded with a desulfo-PPant mimic) (natural protein, Escherichia coli)
chain: STIEERVKKIIGEQLGVKQEEVTNNASFVEDLGADSLDTVELVMALEEEFDTEIPDEEAEKITTVQAAIDYINGHQA
modifications: desulfo-phosphopantetheine (desulfo-PPant mimic) loaded onto apo-AcpP; uniform 15N labelling
As for B1, in the test with PltF Q438R D263K A230R, the binding result was “binds”.

B2: PltF Q438R (enzyme)
chain: T1 sequence with R230A, K263D
For B2, the turnover rate of AcpP prolylation (time course, HPLC) in test [1] was found to be 0.264 AcpP h^-1.

B3: PltF Q438R K472R D263N (enzyme)
chain: T1 sequence with R230A, K263N, K472R
In test [2], B3 gave a turnover rate of AcpP prolylation (time course, HPLC) of 1.98 AcpP h^-1.

The values are drawn from publication PMC10807135 (ACS chemical biology, 2023).
